Where no end group is shown, it is not given here. [ ]: non-standard residue; d: D form. Phe(4-Br) = N[C@@H](Cc1ccc(Br)cc1)C(=O)O; pGlu = O=C1CC[C@@H](C(=O)O)N1; Nle = CCCC[C@H](N)C(=O)O; Aib = CC(C)(N)C(=O)O
Target: wild-type rat apelin receptor tagged at its C-terminus with EGFP (rat) (UniProt Q9JHG3)
Test: displacement of 0.2 nM [125I]-pyr-1-apelin-13; membranes of CHO cells expressing rat apelin receptor-EGFP

Sequence of wild-type rat apelin receptor tagged at its C-terminus with EGFP (rat) (Q9JHG3 whole entry): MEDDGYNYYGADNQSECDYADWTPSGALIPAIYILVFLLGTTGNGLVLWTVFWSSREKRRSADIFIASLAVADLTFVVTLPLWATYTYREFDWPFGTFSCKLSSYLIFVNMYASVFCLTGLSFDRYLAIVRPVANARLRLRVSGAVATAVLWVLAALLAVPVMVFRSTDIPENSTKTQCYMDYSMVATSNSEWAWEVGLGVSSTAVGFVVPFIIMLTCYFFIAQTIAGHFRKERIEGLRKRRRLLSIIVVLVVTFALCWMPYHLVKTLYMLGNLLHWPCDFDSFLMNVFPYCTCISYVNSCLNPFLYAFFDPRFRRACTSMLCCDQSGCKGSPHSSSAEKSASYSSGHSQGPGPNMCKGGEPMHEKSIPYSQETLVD

Row | Binder | Ki [pM] | factor of weaker affinity compared to 1 [fold]
1 | [pGlu]RP[azaArg]LSHKGP[Nle][Aib][Phe(4-Br)] [azaArg4-pyr-1-apelin-13 A2 (16)] | 1000 | 3
2 | XRPXLSHKGPXXX (pGlu at 1; αMeArg at 4; Nle at 11; Aib at 12; paraBrPhe at 13) [α-MeArg4-pyr-1-apelin-13 A2 (12)] | 560 | 2
3 | XRPRXSHKGPXXX (pGlu at 1; αMeLeu at 5; Nle at 11; Aib at 12; paraBrPhe at 13) [α-MeLeu5-pyr-1-apelin-13 A2 (14)] | 170 | –

Binders with a lower Ki, results first:

Row | Ki [pM] | factor of weaker affinity compared to 1 [fold] | Binder
4 | 120 | – | XRPRXSHKGPXXX (pGlu at 1; D-Leu at 5; Nle at 11; Aib at 12; paraBrPhe at 13) [D-Leu5-pyr-1-apelin-13 A2 (8)]
5 | 100 | – | XRPRXSHKGPXXX (pGlu at 1; NMeLeu at 5; Nle at 11; Aib at 12; paraBrPhe at 13) [N-MeLeu5-pyr-1-apelin-13 A2 (10)]
6 | 130 | – | XRPRXSHKGPXXX (pGlu at 1; azaLeu at 5; Nle at 11; Aib at 12; paraBrPhe at 13) [azaLeu5-pyr-1-apelin-13 A2 (18)]

From patent publication US20200239537A1
